Experimental findings from the supplement of paper PMC12042874 are described below.

± gives the uncertainty stated by the source.

The data set can be described thus: amyloid nucleation score (Sup35N fusion, yeast selection) (log enrichment); library NNK1; higher = more nucleation; inactive = no reads after selection. In a few lines: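 DiMSum was used to calculate nucleation scores as log enrichment of output over input reads, centred on the mode score of non-aggregating sequences. Sequences with fewer than 100 input reads were not scored. Input and output came from Illumina sequencing of plasmid inserts in psi-negative yeast expressing peptides of 20 random codons fused to Sup35N, induced 24 hours with 100 μM copper sulfate and then grown 7 days at 30°C on medium lacking adenine and uracil.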

In turn, VGMSSDCAGSLRRWRLWARL showed an amyloid nucleation score of 4.55 ± 0.1.
NMLGSFPLTVLRKAWCCGSL displayed an amyloid nucleation score of 1.04 ± 0.57.
The value for ISYSLRGSVRR was -0.032 ± 0.41; that for CSCVVVNCNWYG was 8.609 ± 0.071; that for CLTKEYVRGFLNPGRHRTRQ was -0.271 ± 0.36.
The value for FCNLYVEWFLGDNVKVTRYR was 3.58 ± 0.095; that for NWHGSLKPPYACEGALRVWR was 6.26 ± 0.08; that for QVCRARMHMEVGAMGTFHAS was 0.521 ± 0.41.
Next, CDLLRSLTVS: 0.946 ± 0.6.
TEDVKAVKVLGLTLGVQVIT returned an amyloid nucleation score of -0.657 ± 0.38.
The value for CGIING was -1.08 ± 1.7; that for MTALFGRVSG was -0.134 ± 1.1.
In the case of HAIFCLSKLTFLGPILGSFT, the amyloid nucleation score worked out at 7.112 ± 0.048.
Next, EEWFETGCENGCNVEGNRSC: -0.117 ± 0.57; IIICFRTWLTCSFCFDSAPC: 0.227 ± 0.49.
The substance TSENLNSASNLSSYVADMPI came in with an amyloid nucleation score of 0.273 ± 0.35.
The value for SSSADLAATARLFAGWEVLY was 0.045 ± 0.74; that for DLPLDS was 0.16 ± 0.72; that for LSMKNQDTCTFTCVLSHLSL was 1.9 ± 0.23.
The value for SSLNLMPQVGEGRHTGV was -0.648 ± 0.46; that for CHNVVGSVKRIRSKFMKCFV was “inactive”; that for SVMNGVGPQWLVLTYLPVSR was -0.38 ± 1.5.
Consider SIHGGFYTLPE, for which the amyloid nucleation score was 1.15 ± 0.51.
The value for VRLLTFDITSLFRVFYVKHR was 0.103 ± 0.67; that for CWVHQNNCADVGATGEQSHR was -0.029 ± 0.51; that for SIHVGVSRG was 0.806 ± 0.35.
Next, RCRIWEEIGPIGKGERSRGC: 0.405 ± 0.45.
Next, TYRCR: 0.624 ± 0.53; RFIGVQQMVCVTYNWFKVLG: 1.16 ± 0.19; CSSPRTTLEYWNCFFDHWWS: 2.64 ± 0.2.
In turn, GKISICTRISMYSQSFVWIP displayed an amyloid nucleation score of -0.109 ± 0.45.
Next, VDKKRAISCKSFRLYGRFSL: -0.647 ± 0.32; KWILVRSLESIHKPTL: 0.174 ± 0.89; MRCGAL: 0.2 ± 1.2.
Next, KLMVWITFGSWSRVGHWKGI: -0.387 ± 1.2; SYSDICEVNLDTHKFVLGVR: -0.992 ± 0.49.
Substance VWRKTLRWPLGPWAGRS showed an amyloid nucleation score of -1.11 ± 0.46.
Next, FFYRPYVFMCLFYMVSRAGS: 4.41 ± 0.078.
Next, FYMGGDCVYNECQGEIRLSL: -0.234 ± 0.7; YFEWFVYLYSSRVFFLMLGR: -0.038 ± 0.62.
The value for CDGVMKSGVKKMSTSRDWFM was “inactive”; that for LKRFMDTDYYFMMKCCTSN was 0.843 ± 0.55.
Turning to SQYQTLDVHIKGNVCSNLDM, the amyloid nucleation score came out at 0.012 ± 1.6.
Consider WLFSPNVFVNFCFG, for which the amyloid nucleation score came to 6.913 ± 0.055.
Substance VRFWTLEFSPVRFSS had an amyloid nucleation score of -1.11 ± 0.86.
In turn, IDWKLKLMFMCFESKSLVNW showed an amyloid nucleation score of -0.655 ± 0.32.
For the substance GRSLSFLLIGKYWQYTTQAR, the amyloid nucleation score entry was “inactive”.
Turning to DCDRYNGLCHLCCIQWHL, the amyloid nucleation score was 1.56 ± 0.33.
Next, TNISSTGFAIYWLCN: 7.16 ± 0.049.
The value for LFLKFGGSFAVIFWILVAAV was 0.74 ± 0.48; that for WHEHSYLENSIYITRIKINV was 3.18 ± 0.15.
Next, IKWTLLDG: 0.871 ± 0.47; AWQRVSVKFELGDIGPEGLY: -0.668 ± 0.31; THAMCRYQSHGKLLSSGADS: 0.781 ± 0.65.
FRKTMLWVLVVMGPIFTGSR had an amyloid nucleation score of 0.548 ± 0.87.
Next, LYGYSI: 0.778 ± 0.41.
AFNGTSAGMCKWGACTEWCV displayed an amyloid nucleation score of -0.382 ± 0.28.
